Results: publication doi:10.1101/094961 (bioRxiv, 2017)

Molecular target: RNAP β' subunit with 6his tag (rpoC-6his), in purified δ-containing RNAP (B. subtilis, UniProt P37871 1-1199)
Experiment: cross-linking

Chain of RNAP β' subunit with 6his tag (rpoC-6his), in purified δ-containing RNAP (P37871 whole entry, stated change not applied): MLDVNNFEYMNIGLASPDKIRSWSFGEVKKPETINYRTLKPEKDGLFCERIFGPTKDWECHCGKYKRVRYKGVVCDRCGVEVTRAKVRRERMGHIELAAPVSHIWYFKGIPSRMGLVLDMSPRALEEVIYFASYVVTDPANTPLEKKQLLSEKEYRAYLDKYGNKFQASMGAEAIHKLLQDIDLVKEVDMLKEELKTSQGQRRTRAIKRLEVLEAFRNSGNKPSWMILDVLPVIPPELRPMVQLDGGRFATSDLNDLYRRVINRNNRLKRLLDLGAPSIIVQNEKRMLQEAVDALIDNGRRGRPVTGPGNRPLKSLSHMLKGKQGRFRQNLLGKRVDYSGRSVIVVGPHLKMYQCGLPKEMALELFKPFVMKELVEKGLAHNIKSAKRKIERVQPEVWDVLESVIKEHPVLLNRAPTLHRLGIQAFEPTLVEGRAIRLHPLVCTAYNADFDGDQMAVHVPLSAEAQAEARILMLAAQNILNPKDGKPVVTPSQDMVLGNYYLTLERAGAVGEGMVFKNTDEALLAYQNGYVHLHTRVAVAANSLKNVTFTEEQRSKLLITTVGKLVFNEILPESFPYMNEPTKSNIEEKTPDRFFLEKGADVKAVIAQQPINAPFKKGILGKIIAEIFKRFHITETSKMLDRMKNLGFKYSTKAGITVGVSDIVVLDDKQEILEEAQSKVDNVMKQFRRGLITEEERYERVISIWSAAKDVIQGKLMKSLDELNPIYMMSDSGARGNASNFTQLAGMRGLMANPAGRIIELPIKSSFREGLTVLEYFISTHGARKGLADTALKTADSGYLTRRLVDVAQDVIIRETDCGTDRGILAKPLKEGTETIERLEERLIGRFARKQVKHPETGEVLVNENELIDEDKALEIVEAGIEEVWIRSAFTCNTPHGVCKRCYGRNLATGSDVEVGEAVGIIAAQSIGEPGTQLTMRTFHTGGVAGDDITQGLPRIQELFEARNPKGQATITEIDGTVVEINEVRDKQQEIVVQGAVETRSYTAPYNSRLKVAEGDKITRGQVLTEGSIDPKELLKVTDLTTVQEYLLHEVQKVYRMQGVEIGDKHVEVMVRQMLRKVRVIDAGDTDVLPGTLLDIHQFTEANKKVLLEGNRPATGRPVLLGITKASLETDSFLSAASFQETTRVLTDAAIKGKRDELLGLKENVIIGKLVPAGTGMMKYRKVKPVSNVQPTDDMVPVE

B1: δ subunit (RpoE) of RNA polymerase (natural protein, UniProt P12464 1-173, looked up)
chain: MGIKQYSQEELKEMALVEIAHELFEEHKKPVPFQELLNEIASLLGVKKEELGDRIAQFYTDLNIDGRFLALSDQTWGLRSWYPYDQLDEETQPTVKAKKKKAKKAVEEDLDLDEFEEIDEDDLDLDEVEEELDLEADDFDEEDLDEDDDDLEIEEDIIDEDDEDYDDEEEEIK
B1: binds.
